According to publication PMC2733743:

How the values were obtained:
[1] = molecular target: endogenous cortactin of MTLn3 cells (rat (endogenous in MTLn3)) (UniProt Q66HL2); experiment: FRET or BRET
[2] = molecular target: WT cortactin stably expressed in MTLn3 cells (endogenous cortactin knocked down) (rat); experiment: FRET or BRET
Chain of WT cortactin stably expressed in MTLn3 cells (endogenous cortactin knocked down) (rat) (Q66HL2 whole entry): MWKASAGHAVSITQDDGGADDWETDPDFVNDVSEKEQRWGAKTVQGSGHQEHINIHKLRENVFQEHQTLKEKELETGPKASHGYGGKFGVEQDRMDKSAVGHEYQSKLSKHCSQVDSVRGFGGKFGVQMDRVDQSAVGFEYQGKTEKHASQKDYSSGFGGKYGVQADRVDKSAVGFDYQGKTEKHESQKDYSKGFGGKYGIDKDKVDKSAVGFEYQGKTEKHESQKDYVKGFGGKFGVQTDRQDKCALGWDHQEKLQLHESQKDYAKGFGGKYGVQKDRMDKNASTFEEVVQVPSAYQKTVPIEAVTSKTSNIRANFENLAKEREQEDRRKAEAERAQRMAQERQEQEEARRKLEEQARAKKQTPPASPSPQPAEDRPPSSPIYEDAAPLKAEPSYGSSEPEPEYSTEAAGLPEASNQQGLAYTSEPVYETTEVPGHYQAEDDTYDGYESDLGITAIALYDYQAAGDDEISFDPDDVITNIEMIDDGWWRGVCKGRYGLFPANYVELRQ

- FRET efficiency [1]: 11.8%
- FRET efficiency [2]: 4.2%
Substance: endogenous cofilin of MTLn3 cells (from UniProt P45592 1-166) (natural protein)
